Reference: patent publication US20090291890A1 (published 2009)
Substitutions are numbered along the chain they refer to. Names may count otherwise. “And” between values parts separate entries of the source, which are not always exact repeats. Equal values may be shown once.

B1: T239I/Q286R/M298Q/Q366N-FVIIa (enzyme)
chain: ANAFLEELRPGSLERECKEEQCSFEEAREIFKDAERTKLFWISYSDGDQCASSPCQNGGSCKDQLQSYICFCLPAFEGRNCETHKDDQLICVNENGGCEQYCSDHTGTKRSCRCHEGYSLLADGVSCTPTVEYPCGKIPILEKRNASKPQGRIVGGKVCPKGECPWQVLLLVNGAQLCGGTLINTIWVVSAAHCFDKIKNWRNLIAVLGEHDLSEHDGDEQSRRVAQVIIPSTYVPGTINHDIALLRLHQPVVLTDHVVPLCLPERTFSERTLAFVRFSLVSGWGRLLDRGATALELQVLNVPRLMTQDCLQQSRKVGDSPNITEYMFCAGYSDGSKDSCKGDSGGPHATHYRGTWYLTGIVSWGNGCATVGHFGVYTRVSQYIEWLQKLMRSEPRPGVLLRAPFP
B2: A175S-FVIIa (enzyme)
chain: B1 chain with A175S, I239T, R286Q, Q298M, N366Q
B3: H257A/M298Q-FVIIa (enzyme)
chain: B1 chain with I239T, H257A, R286Q, N366Q
B4: T239I/M298Q/H373F-FVIIa (enzyme)
chain: B1 chain with R286Q, N366Q, H373F
B5: Q286R/S222A-FVIIa (enzyme)
chain: B1 chain with S222A, I239T, Q298M, N366Q
B6: T239I-FVIIa (enzyme)
chain: B1 chain with R286Q, Q298M, N366Q
B7: T239V-FVIIa (enzyme)
chain: B1 chain with I239V, R286Q, Q298M, N366Q
B8: Q286R/S222A/H257A-FVIIa (enzyme)
chain: B1 chain with S222A, I239T, H257A, Q298M, N366Q
B9: S222A/H257A/Q286R/M298Q-FVIIa (enzyme)
chain: B1 chain with S222A, I239T, H257A, N366Q
B10: FVIIa variant Q286N (enzyme)
chain: B1 chain with I239T, R286N, Q298M, N366Q
B11: FVIIa variant Q286D (enzyme)
chain: B1 chain with I239T, R286D, Q298M, N366Q
B12: FVIIa variant H216K (enzyme)
chain: B1 chain with H216K, I239T, R286Q, Q298M, N366Q
B13: FVIIa variant Q286S (enzyme)
chain: B1 chain with I239T, R286S, Q298M, N366Q
B14: FVIIa variant H257A (enzyme)
chain: B1 chain with I239T, H257A, R286Q, Q298M, N366Q
B15: FVIIa variant H216A (enzyme)
chain: B1 chain with H216A, I239T, R286Q, Q298M, N366Q
B16: FVIIa variant K161S (enzyme)
chain: B1 chain with K161S, I239T, R286Q, Q298M, N366Q
B17: FVIIa variant H373D (enzyme)
chain: B1 chain with I239T, R286Q, Q298M, N366Q, H373D
B18: FVIIa variant Q286E (enzyme)
chain: B1 chain with I239T, R286E, Q298M, N366Q
B19: FVIIa variant H216S (enzyme)
chain: B1 chain with H216S, I239T, R286Q, Q298M, N366Q
B20: FVIIa variant Q286V (enzyme)
chain: B1 chain with I239T, R286V, Q298M, N366Q
B21: FVIIa variant K161A (enzyme)
chain: B1 chain with K161A, I239T, R286Q, Q298M, N366Q
B22: FVIIa variant Q286K (enzyme)
chain: B1 chain with I239T, R286K, Q298M, N366Q
B23: FVIIa variant H373E (enzyme)
chain: B1 chain with I239T, R286Q, Q298M, N366Q, H373E
B24: FVIIa variant K161V (enzyme)
chain: B1 chain with K161V, I239T, R286Q, Q298M, N366Q
B25: FVIIa variant Q286A (enzyme)
chain: B1 chain with I239T, R286A, Q298M, N366Q
B26: FVIIa variant S222K (enzyme)
chain: B1 chain with S222K, I239T, R286Q, Q298M, N366Q
B27: FVIIa variant Q286T (enzyme)
chain: B1 chain with I239T, R286T, Q298M, N366Q
B28: FVIIa variant H257S (enzyme)
chain: B1 chain with I239T, H257S, R286Q, Q298M, N366Q
B29: FVIIa variant H216R (enzyme)
chain: B1 chain with H216R, I239T, R286Q, Q298M, N366Q
B30: FVIIa variant H373S (enzyme)
chain: B1 chain with I239T, R286Q, Q298M, N366Q, H373S

molecular target: Factor X (Homo sapiens (Human)) (UniProt P00742)

kcat/KM (M^-1s^-1), TF-dependent assay	kcat/KM, TF-independent assay [M⁻¹ s⁻¹]	kcat/KM, TF-dependent assay [M⁻¹ s⁻¹]	Molecule
1.3e+08 M⁻¹ s⁻¹	113		T128N/P129A/T239I/Q286R/M298Q/H373F-FVIIa (enzyme)
3.48e+07 M⁻¹ s⁻¹			WT (NovoSeven-RT®) (enzyme)
	12.4		WT (NovoSeven-RT®) FVIIa (enzyme)
6.29e+07 M⁻¹ s⁻¹	90.8		T128N/P129A/M298Q-FVIIa (enzyme)
6.76e+07 M⁻¹ s⁻¹ and 7.46e+07 M⁻¹ s⁻¹	69.9		M298Q-FVIIa (enzyme)
8.84e+07 M⁻¹ s⁻¹	11.8		T239V/Q286R-FVIIa (enzyme)
	20.5		Gla swap FIX/S222A/H257S/Q286R-FVIIa (enzyme)
1.69e+08 M⁻¹ s⁻¹	84.9		{Gla swap FIX/K43I}/Q286R/M298Q/Q366N-FVIIa (enzyme)
6.07e+07 M⁻¹ s⁻¹	91.6		T128N/P129A/M298Q/H373F-FVIIa (enzyme)
	20.3		Gla swap FIX/S222A/T239I/Q286R-FVIIa (enzyme)
1.42e+08 M⁻¹ s⁻¹	64.6		T128N/P129A/Q286R/M298Q/Q366N-FVIIa (enzyme)
2.52e+08 M⁻¹ s⁻¹	218		{Gla swap FIX/K43I}/T128N/P129A/Q286R/M298Q/Q366N-FVIIa (enzyme)
1.21e+08 M⁻¹ s⁻¹	179		T128N/P129A/S222A/T239V/H257A/Q286R/M298Q-FVIIa (enzyme)
	9.8		WT (NovoSeven®) recombinant human FVIIa (enzyme)
		1.33e+08	T128N/P129A/Q286R/M298Q/Q366N/H373F-FVIIa (enzyme)
2.71e+08 M⁻¹ s⁻¹	389		{Gla swap FIX/K43I}/T128N/P129A/Q286R/M298Q-FVIIa (enzyme)

kcat/KM (M^-1s^-1), TF-dependent assay	kcat/KM, TF-independent assay [M⁻¹ s⁻¹]	kcat/KM, TF-dependent assay [M⁻¹ s⁻¹]	Molecule
2.36e+08 M⁻¹ s⁻¹	290		T128N/P129A/T239V/Q286R/M298Q/H373F-FVIIa (enzyme)
1.21e+08 M⁻¹ s⁻¹			{Gla swap FIX/M19K/E40L/K43I/Q44S}/Q286R/M298Q-FVIIa (enzyme)
1.8e+08 M⁻¹ s⁻¹	989		Gla swap FIX/S52A/S60A/Q286R/M298Q-FVIIa (enzyme)
3.98e+07 M⁻¹ s⁻¹			WT (NovoSeven®) (enzyme)
1.04e+08 M⁻¹ s⁻¹	230		T128N/P129A/T239V/Q286R/M298Q-FVIIa (enzyme)
8.17e+07 M⁻¹ s⁻¹	77.8		T128N/P129A/T239I/Q286R/M298Q-FVIIa (enzyme)
		7.4e+07	B1
2.11e+07 M⁻¹ s⁻¹			B2
1.67e+07 M⁻¹ s⁻¹			B3
		3.47e+07	B4
1.11e+08 M⁻¹ s⁻¹			B5
2.62e+07 M⁻¹ s⁻¹			B6
4.64e+07 M⁻¹ s⁻¹			B7
6.98e+07 M⁻¹ s⁻¹	21.3		B8
1.65e+08 M⁻¹ s⁻¹	345		B9

molecular target: Factor X (FX) (Homo sapiens (Human)) (UniProt P00742)
Sequence (P00742 41-488 limits assumed): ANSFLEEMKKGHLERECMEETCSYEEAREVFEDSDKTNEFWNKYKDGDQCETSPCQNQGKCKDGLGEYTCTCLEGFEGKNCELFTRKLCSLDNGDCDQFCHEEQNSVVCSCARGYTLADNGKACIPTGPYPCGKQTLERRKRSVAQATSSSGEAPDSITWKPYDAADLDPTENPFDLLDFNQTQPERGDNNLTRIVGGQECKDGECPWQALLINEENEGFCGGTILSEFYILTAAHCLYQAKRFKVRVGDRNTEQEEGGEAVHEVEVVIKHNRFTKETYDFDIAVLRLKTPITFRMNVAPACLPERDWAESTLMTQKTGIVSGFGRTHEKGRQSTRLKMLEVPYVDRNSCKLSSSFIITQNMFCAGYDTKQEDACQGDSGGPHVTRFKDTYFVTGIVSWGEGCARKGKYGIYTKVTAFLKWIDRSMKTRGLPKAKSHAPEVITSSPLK

kcat/KM, TF-Dependent Indirect Assay [M⁻¹ s⁻¹]	Molecule
5.97e+07	FVIIa variant K109N (enzyme)
2.79e+07	FVIIa variant A122N/G124S/A175S (enzyme)
3.67e+07	FVIIa variant K109N/A175S (enzyme)
2.98e+07	FVIIa variant T128N/P129A/A175S (enzyme)
2.92e+07	FVIIa variant S119N/L121S/A175S (enzyme)
5.73e+07	FVIIa variant S222A (enzyme)
5.96e+07	FVIIa variant T128N/P129A (enzyme)
1.11e+08	FVIIa variant Q286R (enzyme)
2.64e+08	FVIIa variant Q286R/M298Q/Gla Swap FIX (enzyme)
1.4e+08	FVIIa variant M298Q (enzyme)
1.05e+08	FVIIa variant S52A/S60A (enzyme)
4.88e+07	B10
6.04e+06	B11
6.51e+07	B12
4.64e+07	B13
3.9e+07	B14

kcat/KM, TF-Dependent Indirect Assay [M⁻¹ s⁻¹]	Molecule
5.98e+07	B15
5.99e+07	B16
1.79e+07	B17
1.14e+07	B18
4.74e+07	B19
1.65e+07	B20
4.22e+07	B21
5.44e+07	B22
2.79e+07	B23
5.45e+07	B24
8.55e+07	B25
8.02e+07	B26
2.44e+07	B27
5.9e+07	B28
9.44e+07	B29
2.75e+07	B30
